In patent US12077763B2, “RNA-based control of powdery mildew” (Greenlight Biosciences, Inc., priority 2021, dated 2024):

Test system: E. necator
Assay: Leaf disc assay, dry inoculum (settling tower), decrease in disease severity / hyphal growth (Example 2)
Settings: decrease in disease severity (hyphal growth) relative to untreated control, value ± SE; for % decrease =/− SE TP1: time point 1 (untreated control hyphal growth ≥50%)

Molecule	% decrease =/− SE TP1 [%]	% decrease =/− SE TP2 (time point 2) [%]
GS3916 (nucleic acid) sense: UUACAAUCCAUGCACCAUCCAUUAAGCGAAAAUAAACCAUCACUGUUGAGAAAGAAGUUAAACGUGAUUUGAGCUGUUAUAAGAGUUGAGUUUAACACAGUAUUUUGAAUUUGUUCUAAUCCUGUACUUGCUAUUUUUGAAUCUUCGAGUGAUGGUGCAAGAUCAACGUUGAAGUGUAUGAUAGAAUCUGGUGCAGUUUCGGUACUUAAGUACAGAUAUGUUGCAAUGCCAAAACUAUCACUAGCACCACGCAUAGCAAAGAAAAUAUCGGGAUUUGUAUCAUCACUGGCGAAAAUUUCCUGUCCAUCAGCAAGAAUAACAUCCAUACCAACGAUGUGAUCA antisense: UGAUCACAUCGUUGGUAUGGAUGUUAUUCUUGCUGAUGGACAGGAAAUUUUCGCCAGUGAUGAUACAAAUCCCGAUAUUUUCUUUGCUAUGCGUGGUGCUAGUGAUAGUUUUGGCAUUGCAACAUAUCUGUACUUAAGUACCGAAACUGCACCAGAUUCUAUCAUACACUUCAACGUUGAUCUUGCACCAUCACUCGAAGAUUCAAAAAUAGCAAGUACAGGAUUAGAACAAAUUCAAAAUACUGUGUUAAACUCAACUCUUAUAACAGCUCAAAUCACGUUUAACUUCUUUCUCAACAGUGAUGGUUUAUUUUCGCUUAAUGGAUGGUGCAUGGAUUGUAA	11 ± 9	
GS3673 (nucleic acid) sense: AACUACUAACCUCGCCGCCCUAUAUAAGAAGAUGGGAACGCAAAAUCGUGUCAAUUUGAAAGAAAAGUUAAAAGGAAUGCGAAUCCAAAUCACACAUCUGCCCCCAAAGAUUAAUAAAACAACCGGAAAGGUUAUACCAAGGAUUAAAACCAUUCAAGGCCUUGCAAAUAUUAAUGAUGGUGCCAAAGAGGAGCAUCGACCAGAGGUUGCUGGAUAUGGUGCUGGUCCUCAAAAGGUCAAGUUUUGGGUAUCUGAAGAUACUGGCACUUCUAAAACCAGCCAAAAAAACCCCUUGCCAUCUAACACUUACAUCAGUGUAUAUGAUUACUUCAAAAAAAGAUACCCAAAGAUUGAAUUGGAUCCAAUAAAUCCUGUAGUUAAUGUUGGAAACAGUGAA antisense: UUCACUGUUUCCAACAUUAACUACAGGAUUUAUUGGAUCCAAUUCAAUCUUUGGGUAUCUUUUUUUGAAGUAAUCAUAUACACUGAUGUAAGUGUUAGAUGGCAAGGGGUUUUUUUGGCUGGUUUUAGAAGUGCCAGUAUCUUCAGAUACCCAAAACUUGACCUUUUGAGGACCAGCACCAUAUCCAGCAACCUCUGGUCGAUGCUCCUCUUUGGCACCAUCAUUAAUAUUUGCAAGGCCUUGAAUGGUUUUAAUCCUUGGUAUAACCUUUCCGGUUGUUUUAUUAAUCUUUGGGGGCAGAUGUGUGAUUUGGAUUCGCAUUCCUUUUAACUUUUCUUUCAAAUUGACACGAUUUUGCGUUCCCAUCUUCUUAUAUAGGGCGGCGAGGUUAGUAGUU	34 ± 4	29 ± 6
GS1814: dsRNA trigger SEQ ID NO 161; gene target Importin subunit beta-3 (nucleic acid) DNA: TTATTGGTGGTAGAATGTTCAAAACCTCTGATATAAGTTCATAGTATTTTTGCTTGGATTTTTTGTTGAGACTCCTGAAGAATGAAGCGAAAGCTTCCATAGCGGCCAGTCGGACTGTCACGTCATCATCCTTAAATCCCTTGGTAAAAGCAGAAAGAACAGTATCTTCATGCTGCTTTTCGATTATTCTAGGAGTTGTTGAGAAGATTCTATAGGCAATCTCACGTTGGCCCATCACTTGCGACATACTGAGTGTAAAGAGAACACCTAGAATTTCGGGCCATTGCAACTTATCATCGGAGTACTGCCTAGCGACTTCTGCGACTGCATCACCTATCTTATTTCTTGTAGACGTTTCGGTTTCAGAGCTAAGGGCTTCAAGAAGTTTTTGTCTGATAATATGTCCTTGTTCTGTCGGCAAAGAGATAAATGTTTCCACTGACTGATTATTTTGTAATTTTCGAGTCTTTGAAGCTATCCGTCTGAAGATGACTGCAGCAAAAGAGCGTTTCGCAGGATCGTTTGAGCCCTGAATTTGTTCCACCAGGCCAATCAAGAGCATCTCTGGTTTAAGCAACGTCCAATTATTCGTTAAAT	8 ± 4	
